PMC4349392

Biological target: YFP-tagged CaV1.3 IQ domain, prototypic (IQDY) (rat)
Assay: FRET or BRET

A K (a,EFF) (reciprocal D (free) units) of 0.000588, a Ka of 1.8e+07 M⁻¹ and a Kd of 55 nM were found for “CFP-tagged calmodulin, wild type (CFP-CaMWT) (from UniProt P0DP29 1-149) (natural protein)” in this work.
